Measurements taken from article PMC3046295 (Journal of autoimmunity, 2011).
Where two headings read alike, the source gives them in different places. Values belong to the molecule of their own block, whether it stands above or below them. Residues, ends and D or L forms follow the SMILES beside them. No end group written: not given here.

Tests used:
[1] = molecular target: HLA-DR0403 (DRA1*0101/DRB1*0403), soluble recombinant (human); assay: ELISA
HLA-DR0405 = HLA-DR0405 (Homo sapiens, UniProt P01903+P01911, A100R/A169T/D86S/F76Y/I96L/K127E/L162R/M171V/N62H/P40V/Q125Y/R42H/S133A/S149N/S66Y/V115G/V209L/W38E); assay: Indirect; format: binding; conditions: read-out: IC50 (uM) 0405; pH 5.4
HLA-DR0401 [2] = molecular target: T1, HLA-DR0401 (Homo sapiens, UniProt P01903+P01911, A100K/A169T/F76Y/I96L/K127E/L162R/M171V/N62H/P40V/Q125Y/R42H/S133A/S149N/S66Y/V115G/V209L/W38E); assay: biochemical; format: binding
HLA-DR0403 [3] = molecular target: T2, HLA-DR0403 (Homo sapiens, UniProt P01903+P01911, A100R/A103E/A169T/F76Y/I96L/K127E/L162R/M171V/N62H/P40V/Q125Y/R42H/S133A/S149N/S66Y/V209L/W38E); assay: Kinetic analysis; format: binding; conditions: pH 5.4, read-out: Kd 0403 (dissociation rate constant)
HLA-DR0403 [4] = molecular target: T2, HLA-DR0403; assay: biochemical; format: binding
HLA-DR0401 [5] = molecular target: T1, HLA-DR0401; assay: Kinetic analysis; format: binding; conditions: pH 5.4, read-out: Kd 0401 (dissociation rate constant)
DR0403 = DR0403 (Homo sapiens, UniProt P01903+P01911, A100R/A103E/A169T/F76Y/I96L/K127E/L162R/M171V/N62H/P40V/Q125Y/R42H/S133A/S149N/S66Y/V209L/W38E); assay: 16-hour direct binding assay of biotinylated reference peptide, DR0403
[6] = molecular target: HLA-DR0401 (DRA1*0101/DRB1*0401), soluble recombinant (human); assay: ELISA
[7] = molecular target: HLA-DR0403 (DRA1*0101/DRB1*0403), soluble recombinant (human); assay: ELISA; remark: listed apart in the source

Molecule: biotinylated influenza hemagglutinin derived peptide HA306
EC50 [1]: > 15 µM

Molecule: CC[C@H](C)[C@H](NC(=O)[C@@H](NC(=O)[C@@H]1CCCN1C(=O)[C@H](C)NC(=O)[C@@H](N)C(C)C)C(C)C)C(=O)N[C@@H](CCCCN)C(=O)N[C@@H](C)C(=O)N[C@@H](CCCNC(=N)N)C(=O)N[C@@H](CCSC)C(=O)N[C@@H](CCSC)C(=O)N[C@@H](CCC(=O)O)C(=O)N[C@@H](Cc1ccc(O)cc1)C(=O)NCC(=O)N[C@H](C(=O)N[C@H](C(=O)N[C@@H](CCSC)C(=O)N[C@H](C(=O)N[C@@H](CO)C(=O)N[C@@H](Cc1ccc(O)cc1)C(=O)N[C@@H](CCC(N)=O)C(=O)O)C(C)C)[C@@H](C)O)[C@@H](C)O [GAD65p67] (H-VAPVIKARMMEYGTTMVSYQ-OH)
IC50 (HLA-DR0405): > 10 µM
IC50 (HLA-DR0401 [2]): 0.64 µM
koff (HLA-DR0403 [3]): 7.67e-05 s⁻¹
IC50 (HLA-DR0403 [4]): 1.61 µM
koff (HLA-DR0401 [5]): 0.000149 s⁻¹

Molecule: CC(C)C[C@H](NC(=O)[C@H](CC(C)C)NC(=O)[C@@H]1CCCN1C(=O)[C@H](CC(=O)O)NC(=O)[C@H](Cc1ccccc1)NC(=O)[C@H](C)NC(=O)CNC(=O)[C@H](Cc1ccc(O)cc1)NC(=O)[C@@H](NC(=O)[C@@H](NC(=O)[C@@H](NC(=O)CNC(=O)[C@H](C)NC(=O)[C@@H](NC(=O)[C@H](C)NC(=O)[C@H](CO)NC(=O)[C@@H](NC(=O)[C@H](CC(C)C)NC(=O)[C@H](Cc1ccccc1)NC(=O)[C@@H]1CCCN1)C(C)C)[C@@H](C)O)[C@@H](C)O)[C@@H](C)O)C(C)C)C(=O)O [GAD65p42] (H-PFLVSATAGTTVYGAFDPLL-OH)
IC50 (HLA-DR0405): > 10 µM
IC50 (HLA-DR0401 [2]): 2.07 µM
koff (HLA-DR0403 [3]): 2.02e-05 s⁻¹
IC50 (HLA-DR0403 [4]): 1.27 µM
koff (HLA-DR0401 [5]): 5.42e-05 s⁻¹

Molecule: NFIRMVISNPAAT [557I]
ED50 to bind 0.05 µM DR0403 (DR0403): 0.01 µM

IC50 [6]: 10 µM
Molecule: YDLSYDTGDKALQCGRHVDV [GAD65p55]

IC50 [7]: 1.89 µM
IC50 [6]: 0.22 µM
Molecule: RGIVEQCCTSICSLYQLENY [preproinsulin p12]

IC50 [7]: 1 µM
Molecule: CFWYIPPSLRTLEDNEERMS [GAD65p64]

IC50 [6]: 8.75 µM
Molecule: GAGSLQPLALEGSLQKRGIV [preproinsulin p10]

IC50 [7]: 10 µM
Molecule: YAMMIARFKMFPEVKEKGMA [GAD65p32]

EC50 [7]: 0.01 µM
Molecule: NFIRMVISNPAAT (not fully specified) [biotinylated GAD65-557I]

IC50 [7]: 0.47 µM
Molecule: TSICSLYQLENYCN [preproinsulin p13]

koff [7]: 7.67e-05 s⁻¹
t1/2 [7]: 151 min
koff [6]: 0.000149 s⁻¹
t1/2 [6]: 77.4 min
Molecule: VAPVIKARMMEYGTTMVSYQ (not fully specified) [biotinylated GAD65p67]

IC50 [7]: 10 µM
Molecule: YAIKTGHPRYFNQLSTGLDM [GAD65p22]

IC50 [7]: 3.55 µM
Molecule: CACDQKPCSCSKVDVNYAFL [GAD65p10]

koff [7]: 2.02e-05 s⁻¹
t1/2 [7]: 9.6 min
koff [6]: 5.42e-05 s⁻¹
t1/2 [6]: 3.6 min
Molecule: PFLVSATAGTTVYGAFDPLL (not fully specified) [biotinylated GAD65p42]
